We go through 125 sequences from the supplement of paper PMC9112550, “Optimization of the antimicrobial peptide Bac7 by deep mutational scanning” (BMC Biology, 2022).

This series relates to Escherichia coli TOP10. The series can be described thus: shrunken log2 fold change of peptide-encoding DNA abundance (4.5 h post-induction vs induction); higher = less antimicrobial activity (less host growth inhibition). The conditions noted are these: time post-induction: 4.5 h; library: site-saturation at positions 5, 18, 19, 20.
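Also: peptides expressed intracellularly from a pBAD plasmid library in pooled LB shake-flask culture, induced with 0.3% L-arabinose, DNA abundance read by NGS, three biological replicates, DESeq2 with apeglm shrinkage.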

Consider RRIRARPPRLPRPRPRPIYCPRP, for which the “shrunken log2 fold change” value amounted to 0.241. Under RRIRHRPPRLPRPRPRPGARPRP stands 0.335. With RRIRYRPPRLPRPRPRPCSMPRP, the “shrunken log2 fold change” value was -0.0147.

As to RRIRHRPPRLPRPRPRPHDYPRP, the “shrunken log2 fold change” value was -0.0577. Turning to RRIRSRPPRLPRPRPRPKKWPRP, the “shrunken log2 fold change” value is 0.0341. Under RRIRNRPPRLPRPRPRPKEKPRP stands -0.016; under RRIRWRPPRLPRPRPRPFTPPRP, -0.0823.

Consider RRIRSRPPRLPRPRPRPKIHPRP, for which the “shrunken log2 fold change” value is -0.0501. On to RRIRFRPPRLPRPRPRPRFSPRP, for which the “shrunken log2 fold change” value was found to be 0.033.

Turning to RRIRNRPPRLPRPRPRPRDNPRP, the “shrunken log2 fold change” value was determined as 0.104.

As to RRIRTRPPRLPRPRPRPLDPPRP, the “shrunken log2 fold change” value was -0.382. The value for RRIRKRPPRLPRPRPRPMRPPRP was 1.22. The value for RRIRERPPRLPRPRPRPAFLPRP was -0.289; that for RRIRRRPPRLPRPRPRPPTDPRP was 0.709. The value for RRIRMRPPRLPRPRPRPSFHPRP was -0.432; that for RRIRFRPPRLPRPRPRPFQQPRP was -0.268; that for RRIRNRPPRLPRPRPRPTQVPRP was 0.152.

Turning to RRIRTRPPRLPRPRPRPTVNPRP, the “shrunken log2 fold change” value is -0.217. Take RRIRDRPPRLPRPRPRPCNRPRP: the “shrunken log2 fold change” value was -0.0148.

RRIRGRPPRLPRPRPRPGFKPRP: the “shrunken log2 fold change” value was determined as 0.354.

Regarding RRIRRRPPRLPRPRPRPHPQPRP, the “shrunken log2 fold change” value stood at 0.268.

Turning to RRIRYRPPRLPRPRPRPSQLPRP, the “shrunken log2 fold change” value is -0.506.

In the case of RRIRYRPPRLPRPRPRPHPCPRP, the “shrunken log2 fold change” value is -0.125. Under RRIRKRPPRLPRPRPRPQKQPRP stands -0.0697; under RRIRFRPPRLPRPRPRPAPQPRP, 0.666. For RRIRMRPPRLPRPRPRPLSAPRP, the “shrunken log2 fold change” value is 1.19. The value for RRIRERPPRLPRPRPRPKTDPRP was -0.497; that for RRIRLRPPRLPRPRPRPGYGPRP was 0.0339; that for RRIRERPPRLPRPRPRPNYMPRP was -0.667. In the case of RRIRERPPRLPRPRPRPFFVPRP, the “shrunken log2 fold change” value was -0.292. Under RRIRFRPPRLPRPRPRPKSLPRP stands 0.0638. Under RRIRFRPPRLPRPRPRPNRWPRP stands 0.0144; under RRIRQRPPRLPRPRPRPFQFPRP, -0.252; under RRIRFRPPRLPRPRPRPNLVPRP, -0.453. In the case of RRIRFRPPRLPRPRPRPFWQPRP, the “shrunken log2 fold change” value is -0.321. Under RRIRYRPPRLPRPRPRPFVRPRP stands 0.00599; under RRIRNRPPRLPRPRPRPCRNPRP, -0.437; under RRIRGRPPRLPRPRPRPECWPRP, 1.92. The value for RRIRNRPPRLPRPRPRPNKYPRP was -0.774; that for RRIRYRPPRLPRPRPRPPHTPRP was -0.656; that for RRIRSRPPRLPRPRPRPGTEPRP was 0.0221.

As for RRIRDRPPRLPRPRPRPRLRPRP, the “shrunken log2 fold change” value was found to be 0.122. Turning to RRIRQRPPRLPRPRPRPAFPPRP, the “shrunken log2 fold change” value was 0.0799.

RRIRYRPPRLPRPRPRPWNGPRP: the “shrunken log2 fold change” value was -0.155. Under RRIRHRPPRLPRPRPRPCHIPRP stands -0.454. Under RRIRVRPPRLPRPRPRPCMNPRP stands -0.31.

On to RRIRKRPPRLPRPRPRPNRHPRP, for which the “shrunken log2 fold change” value is -0.0212. Under RRIRHRPPRLPRPRPRPWMAPRP stands -0.347; under RRIRIRPPRLPRPRPRPYQFPRP, -0.141; under RRIRWRPPRLPRPRPRPIHLPRP, -0.0188. The value for RRIRWRPPRLPRPRPRPGPWPRP was 0.318. The value for RRIRMRPPRLPRPRPRPLHMPRP was -0.0934. In the case of RRIRVRPPRLPRPRPRPFWRPRP, the “shrunken log2 fold change” value is 0.0595.

Take RRIRTRPPRLPRPRPRPKPTPRP: the “shrunken log2 fold change” value was 0.0943.

Turning to RRIRKRPPRLPRPRPRPSVPPRP, the “shrunken log2 fold change” value turned out to be 0.21. The value for RRIRGRPPRLPRPRPRPEKDPRP was 1.27; that for RRIRHRPPRLPRPRPRPWTDPRP was -0.0171.

With RRIRIRPPRLPRPRPRPNLKPRP, the “shrunken log2 fold change” value was -0.484.

On to RRIRERPPRLPRPRPRPPQSPRP, for which the “shrunken log2 fold change” value was 0.0516. The value for RRIRDRPPRLPRPRPRPPVHPRP was 0.105; that for RRIRTRPPRLPRPRPRPYYKPRP was -0.38; that for RRIRWRPPRLPRPRPRPTDDPRP was -0.0402. As to RRIRQRPPRLPRPRPRPSMCPRP, the “shrunken log2 fold change” value is -0.194. Under RRIRNRPPRLPRPRPRPRTNPRP stands -0.166.

RRIRVRPPRLPRPRPRPQKFPRP: the “shrunken log2 fold change” value is -0.278.

Regarding RRIRRRPPRLPRPRPRPMWHPRP, the “shrunken log2 fold change” value was -0.03. Consider RRIRCRPPRLPRPRPRPLPTPRP, for which the “shrunken log2 fold change” value worked out at 0.63. The value for RRIRWRPPRLPRPRPRPDDHPRP was 0.0959; that for RRIRTRPPRLPRPRPRPTAVPRP was -0.133; that for RRIRLRPPRLPRPRPRPQFTPRP was -0.324. In the case of RRIRQRPPRLPRPRPRPTTAPRP, the “shrunken log2 fold change” value was -0.00139.

Regarding RRIRTRPPRLPRPRPRPYHEPRP, the “shrunken log2 fold change” value was -0.0196. Take RRIRDRPPRLPRPRPRPFGWPRP: the “shrunken log2 fold change” value came to 0.903. In the case of RRIRQRPPRLPRPRPRPEFDPRP, the “shrunken log2 fold change” value was found to be 0.00351. Turning to RRIRVRPPRLPRPRPRPLCKPRP, the “shrunken log2 fold change” value was -0.394. With RRIRDRPPRLPRPRPRPESSPRP, the “shrunken log2 fold change” value stood at 0.27. As for RRIRFRPPRLPRPRPRPSVCPRP, the “shrunken log2 fold change” value was -0.16. The value for RRIRRRPPRLPRPRPRPMRRPRP was 0.425. As for RRIRIRPPRLPRPRPRPWHPPRP, the “shrunken log2 fold change” value was -0.383.

Consider RRIRMRPPRLPRPRPRPCMDPRP, for which the “shrunken log2 fold change” value worked out at 0.104. The value for RRIRARPPRLPRPRPRPCDFPRP was -0.128; that for RRIRHRPPRLPRPRPRPPDAPRP was 0.348; that for RRIRPRPPRLPRPRPRPANEPRP was 0.18. Under RRIRFRPPRLPRPRPRPHNPPRP stands -0.288; under RRIRMRPPRLPRPRPRPGLAPRP, 1.51; under RRIRFRPPRLPRPRPRPQLKPRP, -0.0312. For the sequence RRIRARPPRLPRPRPRPFEKPRP, the “shrunken log2 fold change” value is -0.122. Under RRIRHRPPRLPRPRPRPIVGPRP stands -0.476; under RRIRQRPPRLPRPRPRPAYVPRP, -0.0582; under RRIRHRPPRLPRPRPRPFCQPRP, -0.243. On to RRIRERPPRLPRPRPRPYNCPRP, for which the “shrunken log2 fold change” value is 0.275. Regarding RRIRDRPPRLPRPRPRPIKDPRP, the “shrunken log2 fold change” value is -4.

Turning to RRIRARPPRLPRPRPRPGVIPRP, the “shrunken log2 fold change” value was found to be 0.0533. Consider RRIRCRPPRLPRPRPRPKGDPRP, for which the “shrunken log2 fold change” value is -0.0659. Under RRIRQRPPRLPRPRPRPKLFPRP stands -0.0707; under RRIRDRPPRLPRPRPRPRQIPRP, -0.233; under RRIRLRPPRLPRPRPRPAFVPRP, 0.205. Under RRIRQRPPRLPRPRPRPVDGPRP stands -0.13. For the sequence RRIRQRPPRLPRPRPRPLNGPRP, the “shrunken log2 fold change” value was -0.128. The value for RRIRNRPPRLPRPRPRPMPSPRP was 0.0832; that for RRIRWRPPRLPRPRPRPINNPRP was -0.659.

Take RRIRTRPPRLPRPRPRPPVQPRP: the “shrunken log2 fold change” value amounted to 0.0423.

Take RRIRRRPPRLPRPRPRPHHLPRP: the “shrunken log2 fold change” value is -0.0855.

For the sequence RRIRWRPPRLPRPRPRPVCQPRP, the “shrunken log2 fold change” value was -0.0154. Under RRIRARPPRLPRPRPRPETRPRP stands 0.662.

In the case of RRIRKRPPRLPRPRPRPYRLPRP, the “shrunken log2 fold change” value is -0.212. On to RRIRNRPPRLPRPRPRPPINPRP, for which the “shrunken log2 fold change” value was -0.186. Under RRIRRRPPRLPRPRPRPKHYPRP stands 0.227. For RRIRGRPPRLPRPRPRPLAEPRP, the “shrunken log2 fold change” value amounted to 2.89. As to RRIRHRPPRLPRPRPRPSFIPRP, the “shrunken log2 fold change” value was -0.619. Under RRIRTRPPRLPRPRPRPLQFPRP stands -0.497; under RRIRCRPPRLPRPRPRPRRWPRP, 0.646; under RRIRFRPPRLPRPRPRPNNPPRP, -0.625. Under RRIRDRPPRLPRPRPRPCCLPRP stands -0.146; under RRIRWRPPRLPRPRPRPWYMPRP, -0.885; under RRIRKRPPRLPRPRPRPPRAPRP, 1.15. The value for RRIRMRPPRLPRPRPRPNWNPRP was 0.344; that for RRIRFRPPRLPRPRPRPEWTPRP was 0.155; that for RRIRDRPPRLPRPRPRPEPMPRP was 0.035.

For the sequence RRIRERPPRLPRPRPRPTYHPRP, the “shrunken log2 fold change” value is -0.407. As to RRIRPRPPRLPRPRPRPTPNPRP, the “shrunken log2 fold change” value is 0.579.

In the case of RRIRARPPRLPRPRPRPPGDPRP, the “shrunken log2 fold change” value was determined as 0.868. With RRIRGRPPRLPRPRPRPYKCPRP, the “shrunken log2 fold change” value is -0.00955. Under RRIRLRPPRLPRPRPRPFYAPRP stands -0.279; under RRIRCRPPRLPRPRPRPKGYPRP, -0.0908.
